Experiment [1] deals with TrkA (high-affinity NGF receptor), expressed in PC12 cells from pBI/TrkA. Description: cell-based or functional assay.
The target in another experiment is T1, GST-Rabex-5(135-399) (Bos taurus, UniProt O18973 135-399).
T1 construct: Immobilized on glutathione Sepharose-4B; also called the GEF domain itself
Description: GST pull-down, SDS-PAGE, Coomassie staining. As to the method:
The final concentration of each protein was <2 μM for detection of specific binding. The resins were subsequently washed three times with phosphate-buffered saline (PBS) and resuspended in 20 μl of SDS sample buffer. The samples were subjected to 20% SDS-PAGE analysis, and the proteins were visualized by Coomassie brilliant blue staining.
The bound proteins were analyzed by SDS-PAGE and visualized by Coomassie blue staining. […] Molecular mass standards (in kilodaltons) are indicated on the left of the panel.

T1 sequence (O18973 other isoform, or with tags, fused parts or gaps limits assumed): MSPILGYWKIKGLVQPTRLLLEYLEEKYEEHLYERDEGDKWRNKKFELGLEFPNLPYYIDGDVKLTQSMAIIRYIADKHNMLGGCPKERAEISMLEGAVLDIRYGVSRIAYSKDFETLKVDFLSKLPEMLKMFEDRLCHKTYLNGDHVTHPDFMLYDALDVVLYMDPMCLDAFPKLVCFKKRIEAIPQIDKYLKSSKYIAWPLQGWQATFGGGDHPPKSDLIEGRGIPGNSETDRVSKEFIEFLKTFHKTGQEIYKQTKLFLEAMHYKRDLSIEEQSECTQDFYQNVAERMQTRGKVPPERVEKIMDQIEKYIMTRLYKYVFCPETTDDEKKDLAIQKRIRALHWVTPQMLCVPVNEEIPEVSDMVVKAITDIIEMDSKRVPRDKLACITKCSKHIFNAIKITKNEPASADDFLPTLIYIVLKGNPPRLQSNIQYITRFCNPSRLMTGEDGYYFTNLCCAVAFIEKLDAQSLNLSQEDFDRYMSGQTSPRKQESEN
Chain of TrkA (high-affinity NGF receptor), expressed in PC12 cells from pBI/TrkA (P35739 33-799): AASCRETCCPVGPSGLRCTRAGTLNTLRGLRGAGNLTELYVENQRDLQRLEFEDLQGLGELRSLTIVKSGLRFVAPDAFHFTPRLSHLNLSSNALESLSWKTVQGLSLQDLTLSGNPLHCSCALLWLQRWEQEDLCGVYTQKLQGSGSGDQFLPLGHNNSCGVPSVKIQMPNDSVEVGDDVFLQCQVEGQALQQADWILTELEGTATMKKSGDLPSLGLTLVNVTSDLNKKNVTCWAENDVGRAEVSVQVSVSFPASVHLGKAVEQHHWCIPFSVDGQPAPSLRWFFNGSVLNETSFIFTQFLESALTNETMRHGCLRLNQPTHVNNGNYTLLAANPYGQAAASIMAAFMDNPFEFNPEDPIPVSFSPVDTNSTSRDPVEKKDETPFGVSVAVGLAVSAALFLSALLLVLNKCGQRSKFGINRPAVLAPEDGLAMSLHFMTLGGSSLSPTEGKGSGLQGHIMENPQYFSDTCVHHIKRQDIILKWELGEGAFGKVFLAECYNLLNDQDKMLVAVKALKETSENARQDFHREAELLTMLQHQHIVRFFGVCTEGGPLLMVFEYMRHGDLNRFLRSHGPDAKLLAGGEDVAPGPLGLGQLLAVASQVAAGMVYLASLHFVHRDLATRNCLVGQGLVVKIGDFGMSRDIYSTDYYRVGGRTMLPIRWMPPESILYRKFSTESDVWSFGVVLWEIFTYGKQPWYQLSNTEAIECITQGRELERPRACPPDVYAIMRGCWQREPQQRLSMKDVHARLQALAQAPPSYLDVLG

Consider “Myc-tagged RabGAP5-C (residues 441-749) (from UniProt F1LQU9 454-763)”, for which the NGF-mediated neurite outgrowth (percentage of differentiated PC12 cells) in experiment [1] amounted to 20%.

B1: 6-His-Rabaptin-5(551-862) (other)
chain: HHHHHHAETRDQVKKLQLMLRQANDQLEKTMKDKQELEDFIKQSSEDSSHQISALVLRAQASEILLEELQQGLSQAKRDVQEQMAVLMQSREQVSEELVRLQKDNDSLQGKHSLHVSLQQAEDFILPDTTEALRELVLKYREDIINVRTAADHVEEKLKAEILFLKEQIQAEQCLKENLEETLQLEIENCKEEIASISSLKAELERIKVEKGQLESTLREKSQQLESLQEIKISLEEQLKKETAAKATVEQLMFEEKNKAQRLQTELDVSEQVQRDFVKLSQTLQVQLERIRQADSLERIRAILNDTKLTDINQLPET
For B1, the binding result with GST-Rabex-5(135-399) was “no binding”.

B2: 6-His-Rabaptin-5(551-661) (other)
chain: HHHHHHAETRDQVKKLQLMLRQANDQLEKTMKDKQELEDFIKQSSEDSSHQISALVLRAQASEILLEELQQGLSQAKRDVQEQMAVLMQSREQVSEELVRLQKDNDSLQGKHSLHVS
notes: Purified from E. coli BL21(DE3)
Regarding B2, the binding result in the experiment with GST-Rabex-5(135-399) was “no binding”.
